From publication PMC10696418
pKd: −log10 of the molar value. Read-outs that look alike come from different tables or passages of the source.

Assays:
Assay in all cases: SPR
[1] = molecular target: wild-type CRIg Ig V domain, His-tagged (human) (UniProt Q9Y279)
[2] = molecular target: CRIg-Mut-2 (CRIg Ig V domain mutant K15R/K36R/K62Q/K72R/K110R), His-tagged (human)
[3] = molecular target: wild-type CRIg Ig V domain, His-tagged (human) (UniProt Q9Y279); remark: listed apart in the source
[4] = molecular target: CRIg-Mut-1 (CRIg Ig V domain mutant K15R/K36R/K62R/K72R/K110R), His-tagged (human)

Row | Ka-1 (two-state model, first step, association rate) [1] [M⁻¹ s⁻¹] | Ka-2 (two-state model, second step, forward rate) [1] [s⁻¹] | pKd [1] | Kd-1 (two-state model, first step, dissociation rate) [1] [s⁻¹] | Kd-2 (two-state model, second step, reverse rate) [1] [s⁻¹] | Ka-1 (two-state model, first step, association rate) [2] [M⁻¹ s⁻¹] | Ka-2 (two-state model, second step, forward rate) [2] [s⁻¹] | pKd [2] | Kd-1 (two-state model, first step, dissociation rate) [2] [s⁻¹] | Kd-2 (two-state model, second step, reverse rate) [2] [s⁻¹] | pKd [3] | Ka-1 (two-state model, first step, association rate) [4] [M⁻¹ s⁻¹] | Ka-2 (two-state model, second step, forward rate) [4] [s⁻¹] | pKd [4] | Kd-1 (two-state model, first step, dissociation rate) [4] [s⁻¹] | Kd-2 (two-state model, second step, reverse rate) [4] [s⁻¹] | Substance | also measured
1 | 35800 | 0.00463 | 7.98 | 0.0168 | 0.000105 | 10600 | 0.00469 | 7.07 | 0.0191 | 0.000227 | 7.17 | 7100 | 0.00589 | 6.94 | 0.0209 | 0.000231 | iC3b (from UniProt P01024 23-667; P01024 1321-1663) (domain or fragment) | Ka-1 (two-state model, first step, association rate) [3]: 16000 M⁻¹ s⁻¹; Ka-2 (two-state model, second step, forward rate) [3]: 0.00376 s⁻¹; Kd-1 (two-state model, first step, dissociation rate) [3]: 0.0207 s⁻¹; Kd-2 (two-state model, second step, reverse rate) [3]: 0.000206 s⁻¹
2 | 25100 | 0.00166 | 7.33 | 0.00714 | 0.00533 | – | – | 7.79 | – | – | 8.14 | – | – | 7.60 | – | – | C3b (from UniProt P01024 749-1663; P01024 749-1663) (domain or fragment) | koff [2]: 0.000203 s⁻¹; kon [2]: 12600 M⁻¹ s⁻¹; koff [3]: 0.000125 s⁻¹; kon [3]: 17100 M⁻¹ s⁻¹; koff [4]: 0.000441 s⁻¹; kon [4]: 18200 M⁻¹ s⁻¹
3 | – | – | – | – | – | 14800 | 0.00262 | 5.95 | 0.0271 | 0.00414 | – | 12000 | 0.0052 | 5.56 | 0.0491 | 0.00928 | C3c (from UniProt P01024 23-667; P01024 749-954; P01024 1321-1663) (domain or fragment) | –
